What was measured:
[1] = target: human full-length CD45 extracellular domain (ECD) isoform RABC (human) (UniProt P08575); experiment: SPR; GE Biacore T100; about 200 RU of human CD45 ECD, E3/49K immobilised on an SA-chip, reference channel with an unrelated protein; HBS-P+; twofold serial dilutions, 30 s association, 30 ul/min, 25 °C
[2] = target: human full-length CD45 extracellular domain (ECD) isoform RABC (human) (UniProt P08575); experiment: cryo-EM structure; fully glycosylated human CD45 ECD bound to E3/49K, purified by size exclusion chromatography; 0.01% FOM; 3.8-Å nominal resolution map

UniProt P08575, sequence (P08575 26-577): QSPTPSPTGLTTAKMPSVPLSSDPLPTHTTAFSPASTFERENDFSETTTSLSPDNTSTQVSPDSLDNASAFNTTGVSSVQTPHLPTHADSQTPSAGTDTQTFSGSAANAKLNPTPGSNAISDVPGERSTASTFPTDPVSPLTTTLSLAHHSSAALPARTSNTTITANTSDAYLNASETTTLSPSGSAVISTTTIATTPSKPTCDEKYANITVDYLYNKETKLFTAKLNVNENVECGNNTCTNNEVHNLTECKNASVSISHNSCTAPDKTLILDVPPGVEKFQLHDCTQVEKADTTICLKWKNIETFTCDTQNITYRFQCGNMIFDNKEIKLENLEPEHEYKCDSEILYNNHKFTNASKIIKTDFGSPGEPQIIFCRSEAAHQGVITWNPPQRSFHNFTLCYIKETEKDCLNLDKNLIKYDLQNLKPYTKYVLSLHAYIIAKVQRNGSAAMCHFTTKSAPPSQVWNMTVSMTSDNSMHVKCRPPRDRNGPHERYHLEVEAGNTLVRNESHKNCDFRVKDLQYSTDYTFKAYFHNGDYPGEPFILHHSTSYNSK

Substance | Kd [1] | koff [1] | kon [1] | stoichiometry N (CD45 per E3/49K) [2]
E3/49K R2 domain (domain or fragment) | 0.145 µM |  |  | 
adenoviral D19a strain E3/49K ECD (domain or fragment) | 0.0003 µM | 0.000598 s⁻¹ | 2.08e+06 M⁻¹ s⁻¹ | 2
E3/49K R1 domain (domain or fragment) | 0.074 µM |  |  | 

Reference: PMC11537708
